Measured values as given in publication doi:10.1101/2024.01.23.576903.

Target: ζ subunit (F420-reductase subunit) of the ACDS CODH subcomplex from Candidatus Ethanoperedens thermophilum (Candidatus Ethanoperedens thermophilum)
Experiment: crystal structure

In the case of “ζ subunit (F420-reductase subunit) of the ACDS CODH subcomplex from Candidatus Ethanoperedens thermophilum (natural protein)”, the stoichiometry N is reported as 2.
